Measurements: paper PMC3673982 (PLoS ONE, 2013)

Target: the molecule itself
Assay: cross-linking; 35 µM protein in 50 mM phosphate pH 7.4, 150 mM NaCl, preincubated at 37°C for 30 min; BS2G d0/d4 at 20-fold molar excess (50- and 100-fold also tested), 1 h on ice, quenched with Tris; read by 4-20% SDS-PAGE with Coomassie stain

B1: Human recombinant αA-G98R crystallin (natural protein, UniProt P02489 1-173, looked up)
chain: MDVTIQHPWFKRTLGPFYPSRLFDQFFGEGLFEYDLLPFLSSTISPYYRQSLFRTVLDSGISEVRSDRDKFVIFLDVKHFSPEDLTVKVQDDFVEIHRKHNERQDDHGYISREFHRRYRLPSNVDQSALSCSLSADGMLTFCGPKIQTGLDATHAERAIPVSREEKPTSAPSS
- binding result: binds
